In IntAct's records for PubMed 12907709:

B1: DNA-directed RNA polymerase II subunit rpb7 (Schizosaccharomyces pombe (strain ATCC 38366 / 972)), O14459 (parent)
chain: MPFFLKELSLTISLHPSYFGPRMQDYLKAKLLADVEGTCSGQYGYIICVLDSNTIDIDKGRVVPGQGFAEFEVKYRAVLWRPFRGEVVDAIVTTVNKMGFFANIGPLNVFVSSHLVPPDMKFDPTANPPNYSGEDQVIEKGSNVRLKIVGTRTDATEIFAIATMKEDYLGVL
partner: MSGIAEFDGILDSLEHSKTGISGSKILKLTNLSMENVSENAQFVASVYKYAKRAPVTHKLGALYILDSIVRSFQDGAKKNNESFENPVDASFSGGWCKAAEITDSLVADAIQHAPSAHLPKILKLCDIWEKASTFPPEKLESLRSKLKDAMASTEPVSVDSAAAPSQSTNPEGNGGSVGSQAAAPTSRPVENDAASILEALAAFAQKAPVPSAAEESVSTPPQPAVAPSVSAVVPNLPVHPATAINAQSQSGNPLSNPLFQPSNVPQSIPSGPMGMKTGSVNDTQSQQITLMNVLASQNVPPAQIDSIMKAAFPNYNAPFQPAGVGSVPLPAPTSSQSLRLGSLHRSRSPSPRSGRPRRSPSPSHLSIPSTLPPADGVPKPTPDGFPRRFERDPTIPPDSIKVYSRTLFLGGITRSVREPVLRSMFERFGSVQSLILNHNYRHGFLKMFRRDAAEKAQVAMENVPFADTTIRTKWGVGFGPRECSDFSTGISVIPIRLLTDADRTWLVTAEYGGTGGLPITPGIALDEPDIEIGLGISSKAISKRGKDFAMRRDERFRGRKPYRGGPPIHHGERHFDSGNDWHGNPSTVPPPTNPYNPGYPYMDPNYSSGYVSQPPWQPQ

Variants of: B1
Conditions: with seb1_schpo seb1, Q9UTE3

Row | Variant | effect of a mutation on the interaction
1 | MPFFLKELSLTISLHPSYFGPRMQDYLKAKLLADVEGTCSGQYGYIICVLDSNTIDIDKGRVVPGQGFAEFEVKYRAVLWRPFRGEVVDAIVTTVNKMGFFANIGPLNVFVSSHLVPPDMKFDPTANPPNYSGEDQVIEKGSNVRLKIVGTRTDATEIFAIATMKRAYLGVL [E166R;D167A] | disrupting interaction
